The sequences below were run on Escherichia coli TOP10 (assay: shrunken log2 fold change of peptide-encoding DNA abundance (4.5 h post-induction vs induction); higher = less antimicrobial activity (less host growth inhibition)). Conditions: time post-induction: 4.5 h; library: site-saturation at positions 5, 18, 19, 20.
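Note: peptides expressed intracellularly from a pBAD plasmid library in pooled LB shake-flask culture, induced with 0.3% L-arabinose, DNA abundance read by NGS, three biological replicates, DESeq2 with apeglm shrinkage.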

RRIRIRPPRLPRPRPRPACHPRP and RRIRDRPPRLPRPRPRPDYDPRP are within 0.2 log units of each other in “shrunken log2 fold change” value: -0.12 for the first, -0.0133 for the second.

Going from RRIRMRPPRLPRPRPRPYFHPRP to RRIRGRPPRLPRPRPRPPYCPRP, the “shrunken log2 fold change” value rises from -0.614 to 0.204.

RRIRLRPPRLPRPRPRPHMWPRP and RRIRFRPPRLPRPRPRPRFNPRP are within 0.2 log units of each other in “shrunken log2 fold change” value: -0.325 for the first, -0.196 for the second.

Going from RRIRFRPPRLPRPRPRPKMFPRP to RRIRLRPPRLPRPRPRPRLDPRP, the “shrunken log2 fold change” value rises from -0.323 to 0.363.

Going from RRIRWRPPRLPRPRPRPNMGPRP to RRIRSRPPRLPRPRPRPHSNPRP, the “shrunken log2 fold change” value falls from -0.0382 to -0.358.

Compared with RRIRWRPPRLPRPRPRPPNDPRP, RRIRIRPPRLPRPRPRPHPHPRP is lower in “shrunken log2 fold change” value: 0.0849 for the first, -0.496 for the second.

First: RRIRIRPPRLPRPRPRPDGRPRP
Second: RRIRVRPPRLPRPRPRPCDEPRP
The “shrunken log2 fold change” value of the first is higher: -0.13 for the first, -0.488 for the second.

First: RRIRARPPRLPRPRPRPYTEPRP
Second: RRIRDRPPRLPRPRPRPSPIPRP
The “shrunken log2 fold change” value of the first is lower: -0.583 for the first, 0.0798 for the second.

RRIRCRPPRLPRPRPRPVDIPRP and RRIRPRPPRLPRPRPRPWNEPRP are within 0.2 log units of each other in “shrunken log2 fold change” value: -0.241 for the first, -0.138 for the second.

RRIRRRPPRLPRPRPRPTNVPRP and RRIRKRPPRLPRPRPRPWTGPRP are within 0.2 log units of each other in “shrunken log2 fold change” value: -0.0322 for the first, -0.0587 for the second.

Going from RRIRYRPPRLPRPRPRPQSMPRP to RRIRCRPPRLPRPRPRPQPEPRP, the “shrunken log2 fold change” value rises from -0.451 to 0.13.

Compared with RRIRDRPPRLPRPRPRPEQGPRP, RRIRGRPPRLPRPRPRPDLLPRP is higher in “shrunken log2 fold change” value: 0.0995 for the first, 1.51 for the second.

RRIRLRPPRLPRPRPRPISHPRP and RRIRIRPPRLPRPRPRPAVHPRP are within 0.2 log units of each other in “shrunken log2 fold change” value: -0.137 for the first, -0.145 for the second.

Compared with RRIRARPPRLPRPRPRPIHDPRP, RRIRARPPRLPRPRPRPGWDPRP is higher in “shrunken log2 fold change” value: -0.0961 for the first, 0.811 for the second.

Going from RRIRCRPPRLPRPRPRPHCSPRP to RRIRYRPPRLPRPRPRPGMNPRP, the “shrunken log2 fold change” value rises from -0.769 to -0.227.

First: RRIRQRPPRLPRPRPRPNDNPRP
Second: RRIRSRPPRLPRPRPRPLKFPRP
The “shrunken log2 fold change” value of the first is lower: -0.577 for the first, -0.0436 for the second.

RRIRLRPPRLPRPRPRPQIGPRP and RRIRARPPRLPRPRPRPFKRPRP are within 0.2 log units of each other in “shrunken log2 fold change” value: 0.0441 for the first, 0.0331 for the second.

RRIRIRPPRLPRPRPRPMHCPRP and RRIRERPPRLPRPRPRPNPQPRP are within 0.2 log units of each other in “shrunken log2 fold change” value: -0.00192 for the first, 0.0138 for the second.

Going from RRIRKRPPRLPRPRPRPRDWPRP to RRIRYRPPRLPRPRPRPLSHPRP, the “shrunken log2 fold change” value falls from 0.935 to -0.678.

RRIRTRPPRLPRPRPRPTWKPRP and RRIRCRPPRLPRPRPRPLDAPRP are within 0.2 log units of each other in “shrunken log2 fold change” value: 0.0204 for the first, 0.123 for the second.

Going from RRIRGRPPRLPRPRPRPTKKPRP to RRIRQRPPRLPRPRPRPTQGPRP, the “shrunken log2 fold change” value rises from 0.689 to 2.34.

RRIRRRPPRLPRPRPRPVLQPRP and RRIRWRPPRLPRPRPRPGCYPRP are within 0.2 log units of each other in “shrunken log2 fold change” value: 0.0941 for the first, -0.0343 for the second.

Going from RRIRERPPRLPRPRPRPCNPPRP to RRIRFRPPRLPRPRPRPVYLPRP, the “shrunken log2 fold change” value falls from -0.442 to -0.721.

RRIRLRPPRLPRPRPRPNLKPRP and RRIRCRPPRLPRPRPRPIICPRP are within 0.2 log units of each other in “shrunken log2 fold change” value: -0.367 for the first, -0.442 for the second.

Compared with RRIRKRPPRLPRPRPRPKIGPRP, RRIRWRPPRLPRPRPRPYQNPRP is lower in “shrunken log2 fold change” value: 0.295 for the first, -0.847 for the second.

RRIRHRPPRLPRPRPRPNAMPRP and RRIRIRPPRLPRPRPRPDTWPRP are within 0.2 log units of each other in “shrunken log2 fold change” value: -0.0505 for the first, -0.239 for the second.

RRIRCRPPRLPRPRPRPYVSPRP and RRIRQRPPRLPRPRPRPEHSPRP are within 0.2 log units of each other in “shrunken log2 fold change” value: -0.207 for the first, -0.0123 for the second.

Going from RRIRKRPPRLPRPRPRPAKCPRP to RRIRYRPPRLPRPRPRPHSQPRP, the “shrunken log2 fold change” value falls from 0.174 to -0.71.

Going from RRIRLRPPRLPRPRPRPDAAPRP to RRIRCRPPRLPRPRPRPTTVPRP, the “shrunken log2 fold change” value falls from 2.66 to -0.356.

First: RRIRHRPPRLPRPRPRPVFQPRP
Second: RRIRMRPPRLPRPRPRPCITPRP
The “shrunken log2 fold change” value of the first is lower: -0.0932 for the first, 0.156 for the second.
